Results: patent publication US7662583B2, “Bioreactor containing cells expressing glycosyltransferase nucleic acids isolatable from Arabidopsis” (The University of York, priority 2003, dated 2010)

Assay: UGT enzyme reaction with quercetin (recombinant UGTs, HPLC)
Format: biochemical, Arabidopsis
Conditions: 0.5 mM quercetin, 5 mM UDP-glucose, 30° C.; for Specific activity (nkat/mg protein) 3-O-glc: quercetin glucosylated at 3-OH; for Specific activity (nkat/mg protein) 3′-O-glc: quercetin glucosylated at 3′-OH; for Specific activity (nkat/mg protein) 4′-O-glc: quercetin glucosylated at 4′-OH; for Specific activity (nkat/mg protein) 7-O-glc: quercetin glucosylated at 7-OH
Experimental: The assay mix (200 μl) contained 2 μg of recombinant protein, 100 mM Tris-HCl, pH 7.0, 5 mM UDP-glucose 1.4 mM 2-mercaptoethanol, and 0.5 mM of quercetin. The reaction was carried out at 30° C. for 1 h, and was quick-frozen and stored at −20° C. prior to the reverse-phase HPLC analysis
Reverse-phase HPLC (SpectraSYSTEM HPLC systems and UV6000LP Photodiode Array Detector, ThermoQuest) analysis was carried using a Columbus 5μ C18 column (250×4.60 mm, PHENOMENEX). Quercetin glucosides were separated from the aglycone by a linear gradient of 10-75% acetonitrile in H2O (all solution contained 0.1% trifluoroacetic acid) at 1 ml/mm over 20 mm and monitored at 370 nm. Cytokinin glucosides were separated from their aglycone by a liner gradient of 10-100% methanol in H2O (for N6-isopentenyladenine (iP), N6-benzyladenine and kinetin) or 10-60% methanol in H2O (for trans-zeatin and dihydrozeatin) at 1 ml/min over 20 mm. All solution contained 0.25% acetic acid and 0.04% triethylamine, trifluoroacetic acid. The separation was monitored at 206 nm and 252 nm. The identity of the products was confirmed by comparison with authentic gluco sides.
The activity of Arabidopsis recombinant UGTs towards quercetin was determined using the platform developed previously^15.

Row | Molecule | Specific activity (nkat/mg protein) 3-O-glc | Specific activity (nkat/mg protein) 3′-O-glc | Specific activity (nkat/mg protein) 4′-O-glc | Specific activity (nkat/mg protein) 7-O-glc
1 | UGT71E8: Arabidopsis recombinant glycosyltransferase as printed in Table 1A; probably UGT71B8 of FIG. 1 (protein, UniProt Q9LSY4 1-480, looked up) UDP-glycosyltransferase 71B8: MNKFALVFVPFPILGHLKSTAEMAKLLVEQETRLSISIIILPLLSGDDVSASAYISALSAASNDRLHYEVISDGDQPTVGLHVDNHIPMVKRTVAKLVDDYSRRPDSPRLAGLVVDMFCISVIDVANEVSVPCYLFYTSNVGILALGLHIQMLFDKKEYSVSETDFEDSEVVLDVPSLTCPYPVKCLPYGLATKEWLPMYLNQGRRFREMKGILVNTFAELEPYALESLHSSGDTPRAYPVGPLLHLENHVDGSKDEKGSDILRWLDEQPPKSVVFLCFGSIGGFNEEQAREMAIALERSGHRFLWSLRRASRDIDKELPGEFKNLEEILPEGFFDRTKDKGKVIGWAPQVAVLAKPAIGGFVTHCGWNSILESLWFGVPIAPWPLYAEQKFNAFVMVEELGLAVKIRKYWRGDQLVGTATVIVTAEEIERGIRCLMEQDSDVRNRVKEMSKKCHMALKDGGSSQSALKLFIQDVTKYIA | 0.31 nkat/mg protein | — (Activity lower than 0.02 nkat/mg protein has been considered as trace activity and is not shown in the Table.) | 0.25 nkat/mg protein | — (Activity lower than 0.02 nkat/mg protein has been considered as trace activity and is not shown in the Table.)
2 | UGT73C6: Arabidopsis recombinant glycosyltransferase (protein, UniProt Q9ZQ95 1-495, looked up) UDP-glycosyltransferase 73C6: MAFEKNNEPFPLHFVLFPFMAQGHMIPMVDIARLLAQRGVLITIVTTPHNAARFKNVLNRAIESGLPINLVQVKFPYQEAGLQEGQENMDLLTTMEQITSFFKAVNLLKEPVQNLIEEMSPRPSCLISDMCLSYTSEIAKKFKIPKILFHGMGCFCLLCVNVLRKNREILDNLKSDKEYFIVPYFPDRVEFTRPQVPVETYVPAGWKEILEDMVEADKTSYGVIVNSFQELEPAYAKDFKEARSGKAWTIGPVSLCNKVGVDKAERGNKSDIDQDECLEWLDSKEPGSVLYVCLGSICNLPLSQLLELGLGLEESQRPFIWVIRGWEKYKELVEWFSESGFEDRIQDRGLLIKGWSPQMLILSHPSVGGFLTHCGWNSTLEGITAGLPMLTWPLFADQFCNEKLVVQILKVGVSAEVKEVMKWGEEEKIGVLVDKEGVKKAVEELMGESDDAKERRRRAKELGESAHKAVEEGGSSHSNITFLLQDIMQLAQSNN | 0.11 nkat/mg protein | — (Activity lower than 0.02 nkat/mg protein has been considered as trace activity and is not shown in the Table.) | 0.16 nkat/mg protein | 0.14 nkat/mg protein
3 | UGT88A1: Arabidopsis recombinant glycosyltransferase, FIG. 4 (protein, listed as Arabidopsis thaliana) MGEEAIVLYPAPPIGHLVSMVELGKTILSKNPSLSIHIILVPPPYQPESTATYISSVSSSFPSITFHHLPAVTPYSSSSTSRHHHESLLLEILCFSNPSVHRTLFSLSRNFNVRAMIIDFFCTAVLDITADFTFPVYFFYTSGAACLAFSFYLPTIDETTPGKNLKDIPTVHIPGVPPMKGSDMPKAVLERDDEVYDVFIMFGKQLSKSSGIIINTFDALENRAIKAITEELCFRNIYPIGPLIVNGRIEDRNDNKAVSCLNWLDSQPEKSVVFLCFGSLGLFSKEQVIEIAVGLEKSGQRFLWVVRNPPELEKTELDLKSLLPEGFLSRTEDKGMVVKSWAPQVPVLNHKAVGGFVTHCGWNSILEAVCAGVPMVAWPLYAEQRFNRVMIVDEIKIAISMNESETGFVSSTEVEKRVQEIIGECPVRERTMAMKNAAELALTETGSSHTALTTLLQSWSPK | 0.41 nkat/mg protein | 0.19 nkat/mg protein | 0.76 nkat/mg protein | 0.19 nkat/mg protein
4 | UGT71C2: Arabidopsis recombinant glycosyltransferase (protein, UniProt O82382 1-474, looked up) UDP-glycosyltransferase 71C2: MAKQQEAELIFIPFPIPGHILATIELAKRLISHQPSRIHTITILHWSLPFLPQSDTIAFLKSLIETESRIRLITLPDVQNPPPMELFVKASESYILEYVKKMVPLVRNALSTLLSSRDESDSVHVAGLVLDFFCVPLIDVGNEFNLPSYIFLTCSASFLGMMKYLLERNRETKPELNRSSDEETISVPGFVNSVPVKVLPPGLFTTESYEAWVEMAERFPEAKGILVNSFESLERNAFDYFDRRPDNYPPVYPIGPILCSNDRPNLDLSERDRILKWLDDQPESSVVFLCFGSLKSLAASQIKEIAQALELVGIRFLWSIRTDPKEYASPNEILPDGFMNRVMGLGLVCGWAPQVEILAHKAIGGFVSHCGWNSILESLRFGVPIATWPMYAEQQLNAFTIVKELGLALEMRLDYVSEYGEIVKADEIAGAVRSLMDGEDVPRRKLKEIAEAGKEAVMDGGSSFVAVKRFIDGL | 0.16 nkat/mg protein | 0.03 nkat/mg protein | — (Activity lower than 0.02 nkat/mg protein has been considered as trace activity and is not shown in the Table.) | 0.24 nkat/mg protein
5 | UGT71D1: Arabidopsis recombinant glycosyltransferase (protein, UniProt O82383 1-467, looked up) UDP-glycosyltransferase 71D1: MRNVELIFIPTPTVGHLVPFLEFARRLIEQDDRIRITILLMKLQGQSHLDTYVKSIASSQPFVRFIDVPELEEKPTLGSTQSVEAYVYDVIERNIPLVRNIVMDILTSLALDGVKVKGLVVDFFCLPMIDVAKDISLPFYVFLTTNSGFLAMMQYLADRHSRDTSVFVRNSEEMLSIPGFVNPVPANVLPSALFVEDGYDAYVKLAILFTKANGILVNSSFDIEPYSVNHFLQEQNYPSVYAVGPIFDLKAQPHPEQDLTRRDELMKWLDDQPEASVVFLCFGSMARLRGSLVKEIAHGLELCQYRFLWSLRKEEVTKDDLPEGFLDRVDGRGMICGWSPQVEILAHKAVGGFVSHCGWNSIVESLWFGVPIVTWPMYAEQQLNAFLMVKELKLAVELKLDYRVHSDEIVNANEIETAIRYVMDTDNNVVRKRVMDISQMIQRATKNGGSSFAAIEKFIYDVIGIKP | 4.19 nkat/mg protein | — (Activity lower than 0.02 nkat/mg protein has been considered as trace activity and is not shown in the Table.) | — (Activity lower than 0.02 nkat/mg protein has been considered as trace activity and is not shown in the Table.) | — (Activity lower than 0.02 nkat/mg protein has been considered as trace activity and is not shown in the Table.)
6 | UGT73B5: Arabidopsis recombinant glycosyltransferase (protein, UniProt Q9ZQG4 1-484, looked up) UDP-glycosyltransferase 73B5: MNREVSERIHILFFPFMAQGHMIPILDMAKLFSRRGAKSTLLTTPINAKIFEKPIEAFKNQNPDLEIGIKIFNFPCVELGLPEGCENADFINSYQKSDSGDLFLKFLFSTKYMKQQLESFIETTKPSALVADMFFPWATESAEKLGVPRLVFHGTSFFSLCCSYNMRIHKPHKKVATSSTPFVIPGLPGDIVITEDQANVAKEETPMGKFMKEVRESETNSFGVLVNSFYELESAYADFYRSFVAKRAWHIGPLSLSNRELGEKARRGKKANIDEQECLKWLDSKTPGSVVYLSFGSGTNFTNDQLLEIAFGLEGSGQSFIWVVRKNENQGDNEEWLPEGFKERTTGKGLIIPGWAPQVLILDHKAIGGFVTHCGWNSAIEGIAAGLPMVTWPMGAEQFYNEKLLTKVLRIGVNVGATELVKKGKLISRAQVEKAVREVIGGEKAEERRLWAKKLGEMAKAAVEEGGSSYNDVNKFMEELNGRK | 11.58 nkat/mg protein | — (Activity lower than 0.02 nkat/mg protein has been considered as trace activity and is not shown in the Table.) | — (Activity lower than 0.02 nkat/mg protein has been considered as trace activity and is not shown in the Table.) | — (Activity lower than 0.02 nkat/mg protein has been considered as trace activity and is not shown in the Table.)
7 | UGT76E1: Arabidopsis recombinant glycosyltransferase (protein, UniProt Q9LTH3 1-453, looked up) UDP-glycosyltransferase 76E1: MEELGVKRRIVLVPVPAQGHVTPIMQLGKALYSKGFSITVVLTQYNRVSSSKDFSDFHFLTIPGSLTESDLKNLGPFKFLFKLNQICEASFKQCIGQLLQEQGNDIACVVYDEYMYFSQAAVKEFQLPSVLFSTTSATAFVCRSVLSRVNAESFLLDMKDPKVSDKEFPGLHPLRYKDLPTSAFGPLESILKVYSETVNIRTASAVIINSTSCLESSSLAWLQKQLQVPVYPIGPLHIAASAPSSLLEEDRSCLEWLNKQKIGSVIYISLGSLALMETKDMLEMAWGLRNSNQPFLWVIRPGSIPGSEWTESLPEEFSRLVSERGYIVKWAPQIEVLRHPAVGGFWSHCGWNSTLESIGEGVPMICRPFTGDQKVNARYLERVWRIGVQLEGELDKGTVERAVERLIMDEEGAEMRKRVINLKEKLQASVKSRGSSFSSLDNFVNSLKMMNFM | 0.02 nkat/mg protein | — (Activity lower than 0.02 nkat/mg protein has been considered as trace activity and is not shown in the Table.) | — (Activity lower than 0.02 nkat/mg protein has been considered as trace activity and is not shown in the Table.) | 0.08 nkat/mg protein
